The values that follow come from patent publication US20090291081A1 (AbbVie / Abbott, published 2009).

Positions count from the first letter of the chain named. Where “and” joins values, the source holds several entries; their conditions need not be identical. Equal values may be shown once. Bounds are passed on as bounds.

The chains are these.
B1: ABT2-65-10 (other)
VH: VQLSESGGGLVQPGGSLRLSCAASGFTFTEYNMGWVRQAPGKGLEWVSSISAMGNRTYYADSVKGRFTISRDDSKNTLYLQMNSLRAEDTAVYYCANNLVRTQSKMWMFDYWGQGTLVTVSS
notes: VH dAb
B2: ABT2-65-176 (other)
VH: EVQLLESGGGLVQPGGSLRLSCAASGFTFEDYQMGWVRQAPGKGLEWVSSISAMGSRTYYADSVKGRFTISRDDSKNTLYLQMNSLRAEDTAVYYCAENLVKVARGRWMFDYWGQGTLVTVSS
notes: VH dAb
B3: ABT2-65-177 (other)
VH: B2 VH with S56N, E98Q, K102R, V103F, A104K, R105V, G106L, R107Q
notes: VH dAb
B4: ABT2-65-175 (other)
VH: B2 VH with S56N, K102R, V103I, R105G, G106D
notes: VH dAb
B5: ABT2-108 (other)
VH: EVQLLESGGGLVQPGGSLRLSCAASGFTFAEYTMMWVRQAPGKGLEWVSRIGQDGKNTYYADSVKGRFTISRDNSKNTLYLQMNSLRAEDTAVYYCAKYTGRVGVHHLFDYWGQGTLVTSS
B6: ABT2-60 (other)
VL: DIQMTQSPSSLSASVGDRVTITCRASQSIRVFLSWYQQKPGKAPKLLIYNASNLQSGVPSRFSGSGSGTDFTLTISSLQPEDFATYYCQQRALYPTTFGQGTKVEIKR
notes: VK dAb
B7: ABT2-13 (other)
VH: EVQLLESGGGLVQPGGSLRLSCAASGFTFRDYVMYWARQAPGKGLEWVSRIDPMGSSTYYADSVKGRFTISRDNSKNTLYLQMNSLRAEDTAVYYCAKPEGNFDYWGQGTLVTVSS
B8: ABT2-42 (other)
VL: DIQMTQSPSSLSASVGDRVTITCRASQYIEKWLTWYQQKPGKAPTLLIYRGSLLQSGVPSRFSGSGSGTDFTLTISSLQPEDFATYYCQQTEYWPFTFGQGTKVEIKR
B9: ABT2-46 (other)
VL: B8 VL with Y28S, E30I, K31E, T34S, T45K, G51T, L53V, T91N, Y93F
B10: ABT2-64 (other)
VH: EVQLLESGGGLVQPGGSLRLSCAASGFTFDDYGMGWVRQAPGKGLEWVSLIYPFGGGTYYADSVKGRFTISRDNSKNTLYLQMNSLRAEDTAVYYCAKVTQTGKFDYWGQGTLVTVSS
B11: ABT2-65-502 (other)
VH: B2 VH with A23V, I51V, S56N, D74G, E98Q, K102R, V103L, A104G, G106S
B12: ABT2-65-163 (other)
VH: B2 VH with A23V, S56G, E98Q, K102R, V103L, A104G, G106S
B13: ABT2-65-512 (other)
VH: B2 VH with A23V, R38H, S56N, E98Q, K102R, V103L, A104G, G106S
B14: ABT2-65-35 (other)
VH: B2 VH with A23V, S56N, E98Q, K102R, V103L, A104R, G106S
B15: ABT2-65-504 (other)
VH: EVQLLESGGGLVQPGGSLRLSCVASGFTFEDYQMGWVRQAPGKGLERVSSVSAMGNRTHYADSVKGRFTISRDDSKNTLYLQMNSLRAGDTAVYYCAQNLVRLGRSRWMFDYWGQGTLVTVSS
B16: ABT2-65-34 (other)
VH: B2 VH with S56N, E98Q, K102R, V103T, A104R, R105S, G106K
B17: ABT2-65-510 (other)
VH: B15 VH with R47W, V51I, H59Y, K76E, G89E
B18: ABT2-65-160 (other)
VH: B15 VH with R47W, V51I, N56P, H59Y, G89E
B19: ABT2-108-533X (other)
VH: EVQLLESGGGLVQPGGSLRLSCAASGFTFADEGMMWVRQAPGKGLEWVSRIGQDGKNTYYADSVKGRFTISRDNSKNTLYLQMNSLRAEDTAVYYCAKYTGRILGHHLFDYWGQGTLVTVSS
B20: ABT2-108-538X (other)
VH: B19 VH with G52T, Q53Y, D54S
B21: ABT2-108-537X (other)
VH: B19 VH with A61R, D62M, S63D
B22: ABT2-35 (other)
VH: EVQLLESGGGLVQPGGSLRLSCAASGFTFGEYDMAWVRQAPGKGLEWVSVIYAWGTSTYYADSVKGRFTISRDNSKNTLYLQMNSLRAEDTAVYYCAKMGGGLVSLPQSKFDYWGQGTLVTVSS
B23: ABT2-11 (other)
VH: EVQLLESGGGLVQPGGSLRLSCAASGFTFDNYSMTWVRQAPGKGLEWVSAISGSGGSTYYADSVKGRFTISRDNSKNTLYLQMNSLRAEDTAVYYCAKCIDRLPCLFDYWGQGTLVTVSS
B24: ABT2-39 (other)
VH: EVQLLESGGGLVQPGGSLRLSCAASGFTFRAYDMGWVRQAPGKGLEWVSVIYAWGTSTYYADSVKGRFTISRDNSKNTLYLQMNSLRAEDTAVYYCAKIDRDASLPTGEGFDYWGQGTLVTVSS
B25: ABT2-68 (other)
VL: DIQMTQSPSSLSASVGDRVTITCRASQNIWYHLNWYQQKPGKAPKLLIYLGSRLQSGVPSRFSGSGSGTDFTLTISSLQPEDFATYYCQQIHHDPFTFGQGTKVEIKR
B26: ABT2-10 (other)
VH: EVQLLESGGGLVQPGGSLRLSCTASGFTFNRYNMAWARQAPGKGLEWVSEIDLKGSQTYYADSVKGRFTISRDNSKNTLYLQMNSLRAEDTAVYYCAKVSISAYHMFDYWGQGTLVTVSS
B27: ABT2-69 (other)
VH: EVQLLESGGGLVQPGGSLRLSCAASGFTFTGYDMAWVRQAPGKGLEWVSVIYAYGESTYYADSVKGRFTISRDNSKNTLYLQMNSLRAEDTAVYYCAKVYSNQFDYWGQGTLVTVSS
B28: ABT2-72 (other)
VH: B27 VH with T30R, G31A, A35G, Y54W, E56T, V99T, Y100S, N102D, Q103G
B29: ABT2-43 (other)
VL: B6 VL with S28N, R30D, V31T, F32Y, S34T, K45R, N50G, N53T, L93Y
B30: ABT2-6 (other)
VL: DIQMTQSPSSLSASVGDRVTITCRASQSIGLLLTWYQQKPGKAPKLLIYMASQLQSGVPSRFSGSGSGTDFTLTISSLQPEDFATYYCQQWHRPPSTFGQGTKVEIKR
B31: ABT2-8 (other)
VL: B30 VL with G30K, L31S, L32M, T34A, Q53N, W91T, H92I, R93V, P94K
B32: ABT2-7 (other)
VL: B30 VL with G30K, L31S, L32G, T34N
B33: ABT2-66 (other)
VH: EVQLLESGGGLVQPGGSLRLSCAASGFTFSHYTMAWVRQAPGKGLEWVSTIGSSGNSTYYADSVKGRFTISRDNSKNTLYLQMNSLRAEDTAVYYCAQMRGPYYTFDYRGQGTLVTVSS
B34: ABT2-67 (other)
VL: DIQMTQSPSSLSASVGDRVTITCRASQYIGEHLAWYQQKPGKAPKLLIYHNSALQSGVPSRFSGSGSGTDFTLTISSLQPEDFATYYCQQHAFLPNTFGQGTKVEIKR
B35: ABT2-76 (other)
VL: B8 VL with Y28S, E30D, K31R, T34A, T45K, L53I, T91V, E92A, Y93F, F96P
B36: ABT2-65-17/ABT1-122-511 hu IgG1/K wt (bispecific antibody, V domains shown)
VH: B15 VH with R47W, V51I, H59Y, G89E
VL: DIQMTQSPSSLSASVGDRVTITCRASQPIWTELNWYQQKPGKAPKLLIYGSSSLQRGVPSRFSGSGSGTDFTLTISSLQPEDFATYYCKQFAYFPATFGQGTKVEIKR
B37: ABT2-108-620x/ABT1-122-513 huIgG1/K w (bispecific antibody, V domains shown)
VH: B19 VH with D31E, G33S, M34W, A61R, D62E, S63D, L104M
VL: B36 VL with S52G, L54R
B38: ABT2-108/ABT1-141-25 hu IgG1/K wt (bispecific antibody, V domains shown)
VH: B5 VH
VL: DIQMTQSPSSLSASVGDRVTITCRASQWIQKQLAWYQQKPGKAPKLLIYSSSYLQSGVPSRFSGSGSGTDFTLTISSLQPEDFATYYCQQHLRVPMTFGQGTKVEIKR

The first test has as its target T1, human IL-1β (human, UniProt P01584 117-269).
T1 construct: antigen of the ABT2 dAbs; also called hIL-1β; IL-1 beta
Description: IC50 column of Table 63; receptor binding assay presumed.
Molecule B1 had an IC50 of 20 nM.

B2: the IC50 was found to be 5 nM.

B3: the IC50 stood at 20 nM.

Molecule B4 showed an IC50 of 10 nM.

As for B5, the concentration for half-maximal inhibition (IC50) was determined as 70 nM.

The molecule B6 showed an IC50 of 1000 nM.

On to B7, for which the IC50 came to 175 nM.

In turn, B8 gave an IC50 of 770 nM.

Molecule B9 came in with an IC50 of 390 nM.

For a further test, the target named is T1, human IL-1β. Description: cell-based or functional assay.
In the case of B10, the “ND50” value was more than 10000 nM.

For the molecule B11, the “ND50” value came out at 2 nM.

As for B12, the “ND50” value came to 2 nM.

Regarding B13, the “ND50” value is 3 nM.

Regarding B14, the “ND50” value stood at 4 nM.

Consider B15, for which the “ND50” value was 4 nM.

Turning to B16, the “ND50” value amounted to 20 nM.

In the case of B17, the “ND50” value turned out to be 1 nM.

As to B18, the “ND50” value stood at 2 nM.

B19: the “ND50” value came out at 5 nM.

Take B20: the “ND50” value was determined as 5 nM.

Consider B21, for which the “ND50” value stood at 206 nM.

For B22, the “ND50” value is more than 10000 nM.

Regarding B23, the “ND50” value was more than 10000 nM.

As for B24, the “ND50” value is more than 10000 nM.

B25: the “ND50” value is more than 10000 nM.

For B26, the “ND50” value turned out to be 6000 nM.

Turning to B27, the “ND50” value is more than 10000 nM.

In the case of B28, the “ND50” value is more than 10000 nM.

B29: the “ND50” value was more than 10000 nM.

Regarding B6, the “ND50” value is more than 1000 nM.

For the molecule B7, the “ND50” value came out at 1000 nM.

Consider B30, for which the “ND50” value is more than 20000 nM.

B31: the “ND50” value is more than 20000 nM.

Turning to B32, the “ND50” value was more than 20000 nM.

As to B33, the “ND50” value was more than 10000 nM.

Turning to B34, the “ND50” value was more than 10000 nM.

On to B35, for which the “ND50” value stood at 500 nM.

The next test concerns the target human IL-1β (human, UniProt P01584 117-269). The test can be described thus: cell-based or functional assay.
With B36, the “IL-1β IC50” value is 0.1 nM and 0.16 nM.

For B37, the “IL-1β IC50” value was 0.01 nM and 0.009 nM.

With B38, the “IL-1β IC50” value was 150 nM.
